B1: E. coli C8-ACP (octanoyl-acyl carrier protein), SPR sample (natural protein)
chain: STIEERVKKIIGEQLGVKQEEVTNNASFVEDLGADSLDTVELVMALEEEFDTEIPDEEAEKITTVQAAIDYINGHQA
modifications: octanoyl (C8) chain on a 4'-phosphopantetheine arm (residue not stated)
B2: E. coli holo-ACP (acyl carrier protein with 4'-phosphopantetheine), SPR sample (natural protein)
chain: STIEERVKKIIGEQLGVKQEEVTNNASFVEDLGADSLDTVELVMALEEEFDTEIPDEEAEKITTVQAAIDYINGHQA
modifications: 4'-phosphopantetheine arm (residue not stated)
B3: E. coli apo-ACP (unmodified acyl carrier protein), SPR sample (natural protein)
chain: STIEERVKKIIGEQLGVKQEEVTNNASFVEDLGADSLDTVELVMALEEEFDTEIPDEEAEKITTVQAAIDYINGHQA

How the values were obtained:
[1] = molecular target: T1, E. coli LipBK135A/C169A (catalytically inactive double mutant of lipoate protein ligase B) (E. coli, UniProt P60720 1-213, K135A | C169A); experiment: SPR; LipBK135A/C169A immobilised on an activated gold sensor surface (Autolab ESPRIT), increasing concentrations of ACP passed over; 20 mM sodium phosphate pH 8.0, 100 mM NaCl, 298 K; global fit of five injections, 1:1 Langmuir model; details: both partners purified
[2] = molecular target: T1, E. coli LipBK135A/C169A (catalytically …); experiment: SPR; apparent (binding curve did not reach saturation for holo-ACP); LipBK135A/C169A immobilised on an activated gold sensor surface (Autolab ESPRIT), increasing concentrations of ACP passed over; 20 mM sodium phosphate pH 8.0, 100 mM NaCl, 298 K; global fit of five injections, 1:1 Langmuir model; details: both partners purified

Row | Binder | Kd [1] [µM] | Kd [2] [µM]
1 | B1 | 36.4 | 
2 | B2 |  | 100
3 | B3 |  | 2100

Reference: PMC9307952 (The Journal of Biological Chemistry, 2022)
